Test results: publication PMC3709441 (The Biochemical journal, 2009)

What was measured:
Test in all cases: ELISA
RnPP5 TPR R117A (rat) = target: RnPP5 TPR R117A (rat)
RnPP5 TPR E56A (rat) = target: RnPP5 TPR E56A (rat)
RnPP5 TPR E29A (rat) = target: RnPP5 TPR E29A (rat)
RnPP5 TPR Y80A (rat) = target: RnPP5 TPR Y80A (rat)
RnPP5 TPR R113A (rat) = target: RnPP5 TPR R113A (rat)
RnPP5 TPR E76A (rat) = target: RnPP5 TPR E76A (rat)
[1] = target: HsHop TPR2B (amino acids 353-477) (human, UniProt P31948 353-477)
HsHop TPR2B (amino acids 353-477), sequence (P31948 353-477): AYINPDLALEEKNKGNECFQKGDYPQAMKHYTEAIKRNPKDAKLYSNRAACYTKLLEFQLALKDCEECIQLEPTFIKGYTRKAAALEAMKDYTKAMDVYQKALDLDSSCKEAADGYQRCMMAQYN

[2] = target: HsHop TPR1 (amino acids 1-118) (human, UniProt P31948 1-118)
HsHop TPR1 (amino acids 1-118), sequence (P31948 1-118): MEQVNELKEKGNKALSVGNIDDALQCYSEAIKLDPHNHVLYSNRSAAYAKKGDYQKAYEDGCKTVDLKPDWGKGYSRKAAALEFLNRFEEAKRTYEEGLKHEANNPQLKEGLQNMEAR

[3] = target: HsHop TPR2A (amino acids 223-352) (human, UniProt P31948 223-352)
HsHop TPR2A (amino acids 223-352), sequence (P31948 223-352): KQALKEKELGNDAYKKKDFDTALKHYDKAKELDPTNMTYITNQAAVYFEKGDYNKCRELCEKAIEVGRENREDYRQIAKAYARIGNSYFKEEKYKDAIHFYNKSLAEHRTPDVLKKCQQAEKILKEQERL

[4] = target: T1, HsPP5 TPR (human protein phosphatase 5 TPR domain, amino acids 1-181) (human, UniProt P53041 1-181)
T1 sequence (looked up): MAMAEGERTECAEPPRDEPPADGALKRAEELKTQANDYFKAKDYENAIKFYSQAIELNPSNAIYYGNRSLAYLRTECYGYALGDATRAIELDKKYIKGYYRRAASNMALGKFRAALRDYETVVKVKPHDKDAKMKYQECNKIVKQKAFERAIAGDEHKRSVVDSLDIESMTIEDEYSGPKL

RnPP5 TPR R74A (rat) = target: RnPP5 TPR R74A (rat)
RnPP5 TPR I63A (rat) = target: RnPP5 TPR I63A (rat)
RnPP5 TPR K40A (rat) = target: RnPP5 TPR K40A (rat)
[5] = target: T2, RnPP5 TPR wild type (rat protein phosphatase 5 TPR domain) (rat)
T2 sequence (P53042 whole entry, looked up): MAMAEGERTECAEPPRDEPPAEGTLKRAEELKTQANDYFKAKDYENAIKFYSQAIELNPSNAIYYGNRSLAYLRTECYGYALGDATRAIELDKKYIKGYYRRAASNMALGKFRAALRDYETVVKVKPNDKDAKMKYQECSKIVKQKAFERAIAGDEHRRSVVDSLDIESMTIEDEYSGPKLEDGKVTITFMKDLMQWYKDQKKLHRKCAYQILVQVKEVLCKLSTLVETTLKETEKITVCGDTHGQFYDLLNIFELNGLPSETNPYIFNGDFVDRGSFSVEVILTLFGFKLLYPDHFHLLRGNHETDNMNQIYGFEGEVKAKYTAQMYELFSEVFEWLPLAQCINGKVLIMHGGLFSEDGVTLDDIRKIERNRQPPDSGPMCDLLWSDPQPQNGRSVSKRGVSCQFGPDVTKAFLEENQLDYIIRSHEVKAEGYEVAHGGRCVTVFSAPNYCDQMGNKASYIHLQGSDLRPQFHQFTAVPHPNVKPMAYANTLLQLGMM

RnPP5 TPR R101A (rat) = target: RnPP5 TPR R101A (rat)
RnPP5 TPR K32A (rat) = target: RnPP5 TPR K32A (rat)

Molecule: hsp90 C-12 control phage, displayed peptide … (the 12 residues located at the C-terminus of hsp90)
- A405 (ELISA) (absorbance at 405 nm) (RnPP5 TPR R117A (rat)): 1.06
- A405 (ELISA) (absorbance at 405 nm) (RnPP5 TPR E56A (rat)): 1.08
- A405 (ELISA) (absorbance at 405 nm) (RnPP5 TPR E29A (rat)): 1.06
- A405 (ELISA) (absorbance at 405 nm) (RnPP5 TPR Y80A (rat)): 1.09
- A405 (ELISA) (absorbance at 405 nm) (RnPP5 TPR R113A (rat)): 0.72
- A405 (ELISA) (absorbance at 405 nm) (RnPP5 TPR E76A (rat)): 1.12

Molecule: GDDDTSRMEEVD
- A405 (ELISA) [1]: 0.24 absorbance at 405 nm

Molecule: NAHLRLEMNDVD [T7 phage #7 (VD phage with a -4 methionine), displayed peptide NAHLRLEMNDVD]
- A405 (ELISA) [2]: 0.32 absorbance at 405 nm
- A405 (ELISA) [3]: 0.04 absorbance at 405 nm
- A405 (ELISA) [4]: 0.56 absorbance at 405 nm

Molecule: RFQQMNQSWDVD [T7 phage #1 (VD phage #1), displayed peptide …]
- A405 (ELISA) (absorbance at 405 nm) (RnPP5 TPR R117A (rat)): 1
- A405 (ELISA) (absorbance at 405 nm) (RnPP5 TPR R74A (rat)): 0.75
- A405 (ELISA) (absorbance at 405 nm) (RnPP5 TPR Y80A (rat)): 1.08
- A405 (ELISA) (absorbance at 405 nm) (RnPP5 TPR I63A (rat)): 0.84
- A405 (ELISA) (absorbance at 405 nm) (RnPP5 TPR R113A (rat)): 0.84
- A405 (ELISA) (absorbance at 405 nm) (RnPP5 TPR K40A (rat)): 1.01
- A405 (ELISA) (absorbance at 405 nm) [5]: 1.14

Molecule: KHTVADDELLFG [LFG phage #2, displayed peptide …]
- A405 (ELISA) (absorbance at 405 nm) (RnPP5 TPR R117A (rat)): 0.78
- A405 (ELISA) (absorbance at 405 nm) (RnPP5 TPR R74A (rat)): 0.75
- A405 (ELISA) (absorbance at 405 nm) (RnPP5 TPR E29A (rat)): 0.75
- A405 (ELISA) (absorbance at 405 nm) (RnPP5 TPR R113A (rat)): 0.74
- A405 (ELISA) (absorbance at 405 nm) (RnPP5 TPR R101A (rat)): 0.54

Molecule: RLLSADDDVLFG [LFG phage #1, displayed peptide …]
- A405 (ELISA) (absorbance at 405 nm) (RnPP5 TPR R117A (rat)): 0.8
- A405 (ELISA) (absorbance at 405 nm) (RnPP5 TPR K32A (rat)): 0.74
- A405 (ELISA) (absorbance at 405 nm) (RnPP5 TPR E56A (rat)): 0.78
- A405 (ELISA) (absorbance at 405 nm) (RnPP5 TPR R113A (rat)): 0.66
- A405 (ELISA) (absorbance at 405 nm) (RnPP5 TPR R101A (rat)): 0.53
